Data on 19 variants can be found in the RNAGym collection of RNA variant scans (doi:10.1073/pnas.2313332121).

The chains are these.
B1: TPR 5TU (parent)
chain: GGAUCUUCUCGAUCUAACAAAAAAGACAAAUCUGCCACAAAGCUUGAGAGCAUCUUCGGAUGCAGAGGCGGCAGCCUUCGGUGGCGCGAUAGCGCCAACGUUCUCAACUAUGACACGCAAAACGCGUGCUCCGUUGAAUGGAGUUUAUCAUG

This sample holds only a part of the variants without activity.

Variants of B1 are the subject of the series. Briefly: polymerase ribozyme fitness, log enrichment relative to wild type (log ratio); higher = more active; in vitro selection for triplet polymerase activity. A digest of the protocol:
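To select mutant libraries of each subunit of a heterodimeric triplet polymerase ribozyme, built by PCR and transcribed, each was annealed with a biotinylated primer, partner subunit and triplets, then incubated frozen at −7 °C. Extended constructs were gel-excised, captured on streptavidin beads and amplified by RT-PCR, in one round carried out in triplicate. Illumina sequencing of input and output libraries kept genotypes with ≥10 input reads and ≥1 read per output. Fitness is the base-2 logarithm of genotype enrichment relative to wild-type enrichment, from inverse-variance-weighted replicate averages.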
As for GGAUCUUCUCGAUCUAACAAAAAAGACAAAUCUGUCACAAAGCUUGAGAGCAUCUUCGGAUGCAGAGGCGGCAGCCUUCGGUGGCGCGAUGGCGCCAACGUUCUCAACUAUGACACGCAAAACGCGUGCUCCGUUGAAUGGAGUUUAUCAUG [C35U A91G], the “polymerase ribozyme fitness (log ratio)” value is -2.83. As for GGAUCUUCUCGAUCUAACAAAAAAGACAAAUCUGCCACAAAGCUUGAGAGCAACUUCGGAUGCAGAGGCGGCAGCCUUCGGUGGCGCGAUAGCGCCAACGUUCUCAACUAUGACACGCUAAACGCGUGCUCCGUUGAAUGGAGUUUAUCAUG [U53A A119U], the figure is -2.1. Turning to GGAUCUUCUCGAUCUAACAAAAAAGACAAAUCUGCCACAAGGCUUGAGAGCAUCUUCGGAUGCAGAGGCGGCAGCCUUCGGUGGCGCGAUAGCGCAAACGUUCUCAACUAUGACACGCAAAACGCGUGCUCCGUUGAAUGGAGUUUAUCAUG [A41G C96A], the “polymerase ribozyme fitness (log ratio)” value was 0.0745.

Consider GGAUCUUCUCGAUCUAACAAAAAAGACAAAUCUGCCACAAAGCUUGAGAGCAUCUUCGGAUGCAGAGGCGGCAGCCUUCGGUGGCGCGAUAGCGCCAACGUUCUCAGCUAUGACACGCAAAACGCGCGCUCCGUUGACUGGAGUUUAUCAUG [A107G U127C A138C], for which the “polymerase ribozyme fitness (log ratio)” value is no more than -4.2. The figure for GGAUCUUCUCGAUCUAACAAAAAAGACAAAUCUGCCACAAAGCUUGAGAGCAUCUUCGGAUGCAGAGGCGGCAGCCUUCGGUGGCGCGAUAUCGCCAACGUUCUCAACUAUGCCACGCAAAACGCGUGCUCCGUUGAAUGGAGUUUAUCAUG [G92U A113C] is -2.78; for GGAUCUUCUCGAUCUAACAAAAAAGACAAAUCUGCCACAAAGCUUGAGAGCAUCUUCGGAUGCAGAGGCGGCAGCAUUCGGUGGCGUGAUACCGCCAACGUUCUCAACUAUGACACGCAAAACGCGUGCUCCGUUGAAUGGGGUUUAUCAUG [C76A C87U G92C A142G] it is no more than -4.2. The figure for GGAUCUUCUCGAUCUAACAAAAAAGAUAAAUCUGCCACAAAGCUUGAGAGCAUCUUCGGAUGCAGAGGCGGCAGCCUUCGGUGGCACGAUAGCGCCAACGUUCUCAACUAUGACACGCAAAACGCGUGCUCCGUUGAAUGGAGUAUAUCAUA [C27U G86A U145A G152A] is no more than -4.2. The figure for GGAUCUUCUCGAUCUAACAAAAAAGACAAAUCUGCCACAAAGCUUGAGAGCAUCUUCGGAUGCAGAGGCGGCAGCAUUCGGUGGCGCGAUAGCGCCAACGUUCUCAACUAUGACACGCAAAAUGCGUGCUCCGAUGAAUGGAGUUUAUCAUG [C76A C123U U134A] is -1.5.

With GGAUCUUCUCGAUCUAACAAAAAAGACAAAUCUGCCACAAAGCUUGAGAGCAUCUCCGGAUGCAGAGGCGGCAGCCUGCAGUGCCGCGAUAGCGCCAACGUUCUCAACUAUGACACGCAAAACGCGUGCUCCGUUGAAUGGAGUUUAUCAUG [U56C U78G G80A G84C], the “polymerase ribozyme fitness (log ratio)” value was no more than -4.2. As for GGAUCUUCUCGAUCUAACAAAAAAGACAAAUCUGCCCCAAAGCUUGAGAGCAUCUUCGGAUGCAGAGGCGGCAGCCUUCGGUGGCGCGAUAGCGACAACGUUCUCAACUAUGACACGCAAAACGCGUGCUCCGUUGACUGCAGUUUAUCAUG [A37C C95A A138C G141C], the “polymerase ribozyme fitness (log ratio)” value is no more than -4.2. As for GGAUCUUCUCGAUCUAAUAAAAAAGACAAAUCUGCCACAAAGCUUGAGAGCAUCUUCGGAUGCAGAGGCGGCAGCCUUCGGUGGCGGGAUAGCGCCAACGUUCUCAACUAUGACACGCAAAACGCGUGCUCCGUUGAAUGGAGUUUAUCAUG [C18U C87G], the figure is no more than -4.2. As for GGAUCUUCUCGAUCUAACAAAAAAGACAAAUCUGCCACACAGCUUGAGAGCAUCUUCGGAUGCAGAGGCGGCAGCCUUCGGUGGCGCGAUAGCGCCAACGUUCUCAACUAUGACACGCAAAACGCGUGCUGCGUUGAAUGGAGUUUAUCAUG [A40C C131G], the “polymerase ribozyme fitness (log ratio)” value is -3.13. The figure for GGAUCUUCUCGAUCUAACAAAAAAGACAAAUCCGCCACUAAGCUUGAGAGCAUCUUCGGAUACAGAGGCGGCAGCCUUCGGUGGCACGAUAGCGCCAACGUUCUCAUCUAUGACACGCAAAACGCGUGCUCCGUUGAAUGGAGUUUAUCAUG [U33C A39U G62A G86A A107U] is no more than -4.2; for GGAUCUUCUCGAUCUAACAAAAAAGACAAAUCUGCCACAAAGCUUGAGAGCAUCAUUGGAUGCAGAGGCGGCAGCCUUCGGUGGUGCGAUGGCGCCAACGUUCUCAACUAUGACACGCAAAACGCGUGCUCCGUUGAAUGUAGUUUAUCAUG [U55A C57U C85U A91G G141U] it is -1.7. Regarding GGAUCUUCUCGAUCUAACAAAAAAGACAAAUCUGCCACAAAGCUUGAGAGCAUCUUAGGAUGCAGAGGCGGCAGCCUUCGGUGGCGCGAUAGGGCCAACGUUCUCAACUAUGACACGCAAAACGCGUGCUCCGUUGAAUGGAGUUUAUCAUG [C57A C93G], the “polymerase ribozyme fitness (log ratio)” value is -3.05. As for GGAUCUUCUCGAUCUAACAAUAAAGACAAAUCUGCCACAAAGCUUGAGAGCAUCUUCGGAUGCAGAGGCGGCAGCCUUCCGUGGAGCGAUAGCGCCAACGUUCUCAACUAUGACACGCAAAACGCGAGCUCCGUUGAAUGGAGUUUAUCAUG [A21U G80C C85A U127A], the figure is no more than -4.2. The figure for GGAUCGUCUCGAUCUAACAAAAAAGAAAAAUCCGCCACAAAGCUUGAGAGCAUCUUCGGAUGCAGAGGCGGCAGCCUUCGGUGGAGCAAUAGCGCCAACGUUCUCAACUAUGACACGCAAAACGCGUGCUCCGCUGAAUGGAGUUUAUCAUG [U6G C27A U33C C85A G88A U134C] is no more than -4.2. As for GGAUCUUCUCGAUCUAACAAAAAAGACACAUCUGCCACAAAGCUUGAGAUCAUCUUCGGAUGCAGAGGCGGCAGCCUUCGAUGGCGCGAUAGCGACAACGUUCUCAACUAUGACACGCAAAACGCGUGCUCCUUUGAAUGGAGUUUAUCAUG [A29C G50U G81A C95A G133U], the figure is no more than -4.2; as for GGAUCUUCUCGAUCUAACAAAAAAGACAAAUCUACCACAAAGCUUGAGAGCAUCUACGGAUGCAGAGGCGGCAGCCUUCGGUGGCGCGAUACCGCCAACGUUCUCAACUAUGACACGCAAAACGCGUGCUCCGUUGAAUGGAGUUUAUCAUG [G34A U56A G92C], -1.65.
